From US20180312587A1 (ADURO BIOTECH HOLDINGS EUROPE B V, published 2018)

Legend:
[1] = target: T1, hSIRPα expressed on primary human cells (human, UniProt P78324 31-504); experiment: flow cytometry on primary human granulocytes, FITC goat-anti-mouse Ig
T1 construct: whole, on cells; also called hSIRPα on primary human CD14+ monocytes; on primary human granulocytes
Method: To confirm the functionality of hSIRPα.50A in primary immune cells, granulocytes (e.g. effector cells) were isolated from healthy human donor EDTA blood. First, the EDTA blood of each donor was pooled and centrifuged at 300 g for 6 minutes at 20° C. Next, plasma was removed by aspiration, and the remaining blood cells were gently resuspended. Cells were recovered in red blood cell (RBC) lysis buffer (155 mM NH4Cl; 10 mM KHCO3) and incubated for 10 minutes on ice. Next, cells were centrifuged at 300 g for 7 minutes. Supernatants containing lysed RBCs were removed by aspiration, and the remaining blood cells were gently resuspended in RBC lysis buffer and kept on ice for 1 minute. […] The percentage of granulocytes present in the cell suspension was determined by flow cytometry on the FACSCanto II (BD Biosciences) based on high forward scatter (FSC) and side scatter (SSC). Binding of hSIRPα.50A to human granulocytes was assessed by incubating the cells for 30 minutes at 4° C. with hSIRPα.50A antibody (25 μg/mL and dilutions thereof) in PBS/1% BSA containing 10% autologous serum (PBS/1% BSA/10% serum). […] After this labeling procedure, cells were washed two times, resuspended in PBS/1% BSA/10% serum and analysed by flow cytometry on the FACSCanto II (BD Biosciences). Data were processed and analysed with FlowJo V10 software (FlowJo, LLC).

[2] = target: T1, hSIRPα expressed on primary human cells; experiment: flow cytometry, blockade of DyLight488-hCD47/Fc binding to CD14+ enriched monocytes, donor 1
Method: (§1) In addition, the ability of hSIRPα.50A to block the interaction between hSIRPα and recombinant hCD47/Fc-protein was assessed. For this purpose, CD14+ monocytes were isolated from Ficoll-purified human peripheral blood mononuclear cells (PBMCs) using RosetteSep human monocyte enrichment cocktail (Stemcell). The percentage of monocytes present after the enrichment was determined by flow cytometry on the FACSVerse (BD Biosciences) based on CD14 staining using an APC-Cy7-conjugated mouse-anti-human CD14 detection antibody (BD Biosciences). […] After this labeling procedure, cells were washed two times, resuspended in PBS/1% BSA containing 0.1 μg/mL DAPI (BioLegend), and analysed by flow cytometry on the FACSVerse (BD Biosciences). Data were processed and analysed with FlowJo V10 software (FlowJo, LLC).
(§2) To assess the blocking ability of hSIRPα.50A, CD14+ enriched monocytes cells were seeded in 96-well round bottomed tissue culture plates and incubated for 45 minutes with FcR Blocking Reagent (Miltenyi Biotec) and hSIRPα.50A antibody (200 μg/mL and dilutions thereof) in PBS/1% BSA at 4° C. […] After this labeling procedure, cells were washed two times, resuspended in PBS/1% BSA containing 0.1 μg/mL DAPI (BioLegend), and analysed by flow cytometry on the FACSVerse (BD Biosciences). Data were processed and analysed with FlowJo V10 software (FlowJo, LLC).

[3] = target: T1, hSIRPα expressed on primary human cells; experiment: flow cytometry, primary CD14+ enriched monocytes, donor 1
Method: as §1, with “Next, the binding of hSIRPα.50A to hSIRPα expressed on primary human CD14⁺ monocytes was investigated. In” for “In”
as §2, with “Data were processed and analysed with FlowJo V10 software (FlowJo, LLC).” left out

T1 sequence (P78324 31-504): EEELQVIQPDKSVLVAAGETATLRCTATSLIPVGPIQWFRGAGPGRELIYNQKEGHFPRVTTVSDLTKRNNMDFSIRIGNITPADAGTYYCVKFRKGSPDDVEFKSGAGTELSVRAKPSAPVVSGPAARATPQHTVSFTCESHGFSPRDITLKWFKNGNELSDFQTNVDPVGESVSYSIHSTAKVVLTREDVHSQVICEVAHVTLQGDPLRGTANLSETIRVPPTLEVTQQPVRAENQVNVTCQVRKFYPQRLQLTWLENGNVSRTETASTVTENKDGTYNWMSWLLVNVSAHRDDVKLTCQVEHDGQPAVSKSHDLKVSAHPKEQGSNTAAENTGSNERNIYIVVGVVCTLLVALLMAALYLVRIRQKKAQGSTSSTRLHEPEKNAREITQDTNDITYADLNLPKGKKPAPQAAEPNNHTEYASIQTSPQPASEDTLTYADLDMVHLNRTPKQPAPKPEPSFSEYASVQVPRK

EC50 (read off the curve) [1]: ~3 nM
IC50 [2]: 4.62 nM
EC50 [3]: 7.38 nM
B1: hSIRPα.50A (antibody, V domains shown)
VH: QVQLQQSGPELVKPGASVRISCKASGFTFTNYYIHWVKQRPGQGLEWIGWIYPGNVNTKYNEKFKAKATLTADKSSTTAYMQLSSLASEDSAVYFCARPTIIATDFDVWGAGTTVTVSS
VL: DIVMTQSHKFMSTSVGDRVNITCKASQGVGTAVGWYQQKPGQSPRLLIYWASTRHTGVPDRFTGSGSGTDFSLAISNVQSEDLADYFCQQYSTYPFTFGGGTNLEIK
notes: light chain constant domain not tied; also called mouse hSIRPα.50A; hSIRPα.50A.mIgG1
